The record followed here is US20170052184A1 (published 2017).

Where a chain is given by its changes, count along the chain named.

Assay [1] has as its target T1, HCV Core1-169 (HCV-1, UniProt P26664 1-169).
T1 construct: also called recombinant HCV core antigen
T1 sequence: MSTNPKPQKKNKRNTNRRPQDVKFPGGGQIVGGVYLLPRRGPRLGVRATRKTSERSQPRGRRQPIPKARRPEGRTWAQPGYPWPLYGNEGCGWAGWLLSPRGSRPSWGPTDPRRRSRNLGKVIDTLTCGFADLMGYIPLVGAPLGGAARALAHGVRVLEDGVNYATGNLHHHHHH
The assay can be described thus: EIA, core1-169 coated on plate.

The target of assay [2] is T1, HCV Core1-169. Description: EIA, core1-169 captured by mAb 14-153-229.
The target of assay [3] is T2, HCV Core1-169 recombinant antigen (hepatitis C virus (HCV-1), UniProt P26664 1-169).
T2 sequence: T1 sequence
Description: sandwich EIA, 25 ng/ml core1-169; capture mAb C11-7.

The target in assay [4] is T2, HCV Core1-169 recombinant antigen. The assay can be described thus: sandwich EIA, 25 ng/ml core1-169; capture mAb C11-9.
For assay [5] the target is unchanged. Description: sandwich EIA, 25 ng/ml core1-169; capture mAb 208A-110.
Assay [6] shares this target. Description: sandwich EIA, 25 ng/ml core1-169; capture mAb 208A-293.
The target is the same in assay [7]. Description: sandwich EIA, 25 ng/ml core1-169; capture mAb 208A-557.
The target is the same in assay [8]. The assay can be described thus: sandwich EIA, 25 ng/ml core1-169; capture mAb 208A-692.
Assay [9] shares this target. Description: sandwich EIA, 25 ng/ml core1-169; capture mAb 208B-741.
The target is the same in assay [10]. The assay can be described thus: sandwich EIA, 25 ng/ml core1-169; capture mAb 208B-1096.
The target is the same in assay [11]. The assay can be described thus: sandwich EIA, 25 ng/ml core1-169; capture NC capture mAb.
The target is the same in assay [12]. The assay can be described thus: sandwich EIA, 25 ng/ml core1-169; capture mAb 208A-207-271.
Assay [13] has the same target. The assay can be described thus: sandwich EIA, 25 ng/ml core1-169; capture mAb 208B-395-334.
Assay [14] shares this target. The assay can be described thus: sandwich EIA, 25 ng/ml core1-169; capture mAb 208B-612-226.

B1: HCV 208B-672 (antibody, V domains shown)
VH: EVKLVESGGSLVQPGGSLKLSCAASGFNFNTYAMSWVRQTPEKRLEWVAYISNGGGNTYYVDTVKGRFTISRDNAKNTLYLRMSSLKSEDTAMYYCARHGLYWGYSMDYWGQGTSVTVSS
VL: DIQMTQSPSSLSASLGERVSLTCRASQDIGGSINWLQQEPDGTIKRLIYATSSLDSGVPKRFSGSRSGSDYSLTISSLESEDFVDYYCLQYASSPPTFGGGTKLEIKR
B1: the “OD (A492)” value in assay [1] was 1.77 OD; in [2], 0.99 OD.

B2: HCV 208B-911 (antibody, V domains shown)
VH: QVHLQQPGAELVRPGVSVKLSCKASGYTFTTYSINWMKQRPGQGLEWIGNIYPSTSHTNYNQKFRDKATMTVDKSSSTAYMQLSSPTSEDSAVYYCTINAYSMDYWGQGTSVTVSS
VL: QIVLTQSPEIMSASPGEKVTITCSASSSVSFMYWFQQKPGTSPKLWIYITSNLASGVPTRFSGSGSGTSYSLTISRMEAEDAATYYCQQRSSFPYTFGGGTKLEMKR
As to B2, the “OD (A492)” value was found to be 1.18 OD in assay [1] and 0.14 OD in assay [2].

B3: HCV 208B-793 (antibody, V domains shown)
VH: EVKLVESGGGLVQPGGSLKLSCAASGFTFSSYAMSWVRQTPERRLEWVTYISNGGGSTYYSDTVKGRFTFSRDNAKNTLYLQMSSLKSEDTAMYYCARHGLGRTGFASWGQGTLVTVSA
VL: DIVMTQSHKFMSTSVGDRVSITCKASQDVGTAVAWYQQKPGQSPKLLIYWASTRHTGVPDRFTGSGSGTDFTLTISNVQSEDLADYFCQQYSNYLTFGAGTKLEVKR
In the case of B3, the results for the “OD (A492)” value in assay [1] and in assay [2] were 0.85 OD and 0.17 OD, respectively.

B4: HCV 208B-517 (antibody, V domains shown)
VH: QVQLKQSGPGLVQPSQSLSITCTVSGFSLITHGVHWVRQSPGKGLEWLGVIWSGGSTDYNAAFISRLSISKDTSKSQVFLKMSSLQADDTAIYYCARNGGATAFDYWGQGTTLTVSS
VL: DIVMTQSPATLSVTPGDRVSLSCRASQSISDYLHWYQQKSHESPRLLIKYASQSISGIPSRFRGSGSGSHFTLSINSVEPEDVGVYYCQNGHSFPWTFGGGTKLEIKR
B4: the “OD (A492)” value in assay [1] turned out to be 0.79 OD; in [2] it was 0.97 OD.

B5: HCV 208B-822 (antibody, V domains shown)
VH: QVQLKQSGPGLVQPSQSLSITCTVSGFSLITYGVHWVRQSPGKGLEWLGVIWGGGSTGYNAAFVSRLNITKDNSKSQVFFKMNSLQPDDTAIYYCARNGGATVFDYWGQGTTLTVSS
VL: B4 VL with S28T, R63S
For B5, the “OD (A492)” value in assay [1] was found to be 0.22 OD; in assay [2], 0.12 OD.

B6: HCV 208B-408 (antibody, V domains shown)
VH: EVKLVESGGGLVQPGGSLRLSCASSGFTFTDYYMSWVRQPPGKALEWLGFIRNKAYGYTTEFSASVNGRFTISRDDSQSVPYLQMNTLRAEDSATYYCARVLYYDYGGFAYWGQGTLVTVST
VL: DIQMTQSPASLSASVGETVTITCRASGNIHTYLAWYQQKQGKSPQLLVYNANTLADGVPSRFSGSGSGTQFSLKINSLQPDDFGSYYCQHFWSAPWTFGGGTQLEIKR
With B6, the “OD (A492)” value in assay [1] and in assay [2] was 0.09 OD each time.

B7: HCV 208B-515 (antibody, V domains shown)
VH: QVQLQQPGAELVKPGASLKLSCRASGYTFTSYWIHWVKQRPGQGLEWIGEIDPSDSYTNYNQKFKGKATLTVDKSSRAAYMQLSSLTSEDSAVYYCARHYYGVFDSWGQGTKLTVSS
VL: QIVFTQYPAIMSASLGERVTMTCTASSSVTSSYLHWFQQKPGSSPKLWIYSTSNPGSGVPARFSGRGSGTSYSLSISSMEAEDAATYYCLQFHRSPWTFGGGTKLEIRR
Take B7: the results for the “OD (A492)” value in [1] and in assay [2] were 0.06 OD and 0.08 OD, respectively.

B8: HCV 208A-110 monoclonal antibody (antibody, V domains shown)
VH: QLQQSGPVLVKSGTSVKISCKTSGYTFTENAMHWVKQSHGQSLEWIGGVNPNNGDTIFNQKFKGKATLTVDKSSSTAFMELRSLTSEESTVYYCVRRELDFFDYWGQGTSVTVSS
VL: DIVLTQSPASLAVSLGQRATISCRASQSVSTSRYSYMHWYQQKPGQPPKLLIKYASNLESGVPARFSGSGSGTDFTLNIHPVAEEDTAAYYCQHSWEFPFTFGSGTKLEIKR
With B8, the OD492 nm came out at 0.18 OD492 in [3]; 0.13 OD492 in assay [4]; 0.18 OD492 in [5]; 0.2 OD492 in assay [6]; 0.17 OD492 in [7]; 0.14 OD492 in assay [8]. In addition, the OD492 nm in [9] was found to be 0.2 OD492; in assay [10] it was 0.21 OD492; in assay [11], 0.15 OD492; in assay [12], 0.17 OD492; in assay [13], 0.22 OD492; in assay [14] it was 0.2 OD492.

B9: HCV 208B-395 (antibody, V domains shown)
VH: QVQLQQSGAGLAKPGASVKMSCKASGYTFTANKMHWTKQRPGQGLEWIGYIDPSSGYTQYNHKIQDKATLTADTSSSTAYMQLSSLTFEDSAVYYCTNFAYWGQGTLVTVSA
VL: DIVLTQSPATLSVTPGDRVSLSCRASQRIYNYLHWYQQKSHESPRLLIKYASQSISGIPSRFSGSGSGTDFILTINSVETEDFGMYFCQQSNSWPLTFGAGTKLELRR
With B9, the “OD (A492)” value in [1] was determined as 0.5 OD; in assay [2] it was 1.95 OD.

B10: HCV 208A-207 (antibody, V domains shown)
VH: QGQLQQPGAEFVKPGASLKLSCRASGYTFTSYWIHWVKQRPGQGLEWIGEIDPSDSYINQNQKFRGKATLTVDKSSSTAYMELSGLTSEDSAVYYCARHYYGVLDSWGQGTTLTVSS
VL: B9 VL with I48T
Turning to B10, the “OD (A492)” value in assay [1] was found to be 0.11 OD; in assay [2], 0.41 OD.

B11: HCV 208B-547 (antibody, V domains shown)
VH: B9 VH with G10E, A31S, T37A, Q59E, H62Q, Q65K, T74K, F88S
VL: EVVLTQSPAITAASLGQKVTITCRASSSVSYMHWYRQKSGTSPQPWIYEISTLASGVPTRFRASGSGTSYSLTISSMEAEDAAIYYCQQWNYPLTFGAGTKLELKR
Take B11: the figures for the “OD (A492)” value in [1] and in assay [2] were 0.46 OD and 1.62 OD, respectively.

B12: HCV 208B-826 (antibody, V domains shown)
VH: DVQLVESGGGLVQAGGSRKLSCAASGFPFSSFGMHWVRQAPEKGLEWVASISSRTSKIYYADNLKGRFTISRDNPKNTLFLQMTSLGSEDTAMYYCVRSVFGNSYWFFDVWGAGTTVTVSS
VL: B9 VL with I48T
For the molecule B12, the “OD (A492)” value was determined as 0.65 OD in assay [1] and 0.72 OD in assay [2].

B13: HCV 208B-327 (antibody, V domains shown)
VH: EVQLVESGGGLVKPGGSLKLSCAASGFTFSDSYMYWVRQTPDQRLEWVATISDGGSYTFYPDSVKGRFTISRDNAQNNLYLQMSSLKSEDTAMYYCASPHAGYFGWFAYWGRGTLVTVSA
VL: DIVMTQAAFSNPVTPGTSVSISCRSSKSLLHSNGITYLYWYLQKPGQSPQLLIYQMSKIASGVPDRFRSSGSGTDFTLRISRVEAADVGVYYCAQNLELPWTFGGGTKLEIKR
As to B13, the “OD (A492)” value in assay [1] was determined as 0.14 OD; in [2], 0.11 OD.

B14: HCV 208A-210 (antibody, V domains shown)
VH: QVQLQQSGPELVKPGASMRISCKASGYTFTSYYVHWIKQRPGQGLEWIGCIYPGDVNTDYNEKFKGKATLTADKSSSTAYMQVSTLTSEDSAIYFCVLYYYGSFAYWGQGTLVTVSA
VL: B11 VL with V2I, K18N, P45L, T52R, L53R, T59A, L104V
B14: the “OD (A492)” value in assay [1] and in assay [2] was 0.87 OD each time.

B15: HCV 208B-612 (antibody, V domains shown)
VH: EVQLQQSGPELVKPGASVKMSCKASGYRFTSYVMHWVRQKPGQGLEWIGYIDPHNDDTKYSEKFRGKATLTSDKSSTTAYMELSSLTSEDSAVYYCVRYSYDRDYSPMDYWGQGTSVTVSS
VL: QIVLTQSPTLMSASPGEKVTMTCSASSTVTYIYWYQQKPGSSPRLWMYDTFNLVSGVPARFSGSRSGTSYFLTISSMEGEDAATYYCQQYSDSPYTFGGGTKLEIKR
In the case of B15, the “OD (A492)” value in assay [1] is 0.18 OD; in assay [2] it was 1.2 OD.
